Experimental data as given in US20050069542A1 (Human Genome Sciences, published 2005).
Positions count from the first letter of the chain named.

B1: GMBC613 (scFv)
scFv: KVQLVESGGGLVQPGGSLRLSCAASGFTISSHWMSWVRQAPGKGLEWVASIKQDGREKHFVDSVKGRFSISRDNAKNSLYLQMNSLRTEDTAVYYCARETYGGYYYYFMDVWGKGTLVTVSSGGGGSGGGGSGGGGSSELTQDPAVSVALGQTVRITCQGDSLRSYYASWYQQKPGQAPVLVIYGKNNRPSGIPDRFSGSSSGNTASLTITGAQAEDEADYYCNSRDSSGNHVVFGGGTKLTVLG
B2: GMBC692 (scFv)
scFv: EVQLVQSGGGLVKPGGSLRLSCAASGFTFSDAWMNWVRQAPGKGLEWVGRIKSKGSGGTIDYAAPVKDRFTISRDDSKNTLYLQMNSLKTEDTALYYCTWDWDFYYGMNVWGRGTLVTVSSGGGGSGGGGSGGGGSQSVLTQPASVSGSPGQSITISCTGTSSDVGGYNYVSWYQQHPGKAPKLMIYEGSKRPSGVSNRFSGSKSGNTASLTISGLQAEDEADYYCSSYTTRSTRVFGGGTKLTVLG
B3: GMBC634 (scFv)
scFv: B2 scFv with E1Q, R113Q
B4: GMBC684 (scFv)
scFv: B2 scFv with E1Q, T28K, R113Q, L116P, V139A
B5: GMBC664 (scFv)
scFv: B2 scFv with Q6E, S7T, G10A, G112S, L116M
B6: GMBC686 (scFv)
scFv: B2 scFv with R113Q, L116T
B7: GMBC676 (scFv)
scFv: B2 scFv with K13Q, D31H, G55A, Q84H, L116M, S153P
B8: GMBC616 (scFv)
scFv: EVQLVESGGGLVKPGGSLRLSCAASGFTFSDAWMNWVRQAPGKGLEWVGRIKSKGSGGTTDYAAPVKDRFTISRDDSENTLYLQMNSLKTEDTAVYYCTWDHSYYYDMAVWGRGTLVTVSSGGGGSGGGGSGGGGSQSVLTQPPFVSGSPGQSITISCTGTSSDVGGYNYVSWYQQHPGKAPKLMIYEGSKRPSGVSNRFSGSKSGNTASLTISGLQAEDEADYYCSSYTTRSTRVFGGGTKLTVLG
B9: GMBC660 (scFv)
scFv: B2 scFv with T28I, R113Q, L116P
B10: GMBC654 (scFv)
scFv: B2 scFv with Q6E, S7T, K13E, G55R, T90I, R113K, L116T
B11: GMBC607 (scFv)
scFv: B2 scFv with T80M, Q84E, R113Q, L116M, G167D
B12: GMBC679 (scFv)
scFv: B8 scFv with E1Q, P144A, F145S, M185V
B13: GMBC647 (scFv)
scFv: B2 scFv with Q6E, R113Q, L116T
B14: GMBC620 (scFv)
scFv: B2 scFv with Q6E, L116M
B15: GMBC670 (scFv)
scFv: B2 scFv with Q6E, S7T, A23V, T71I, M85V, R113Q
B16: GMBC649 (scFv)
scFv: B2 scFv with E1Q
B17: GMBC605 (scFv)
scFv: B2 scFv with E1Q, A23E, A24T, T28K
B18: GMBC625 (scFv)
scFv: B2 scFv with G55R, N79D, L81M, R113Q, L116M, S201F
B19: GMBC615 (scFv)
scFv: B2 scFv with Q6E, T28K, R113K, T118A
B20: GMBC645 (scFv)
scFv: B2 scFv with Q6E, A24G, T28K, D61E, T71I, N79D, K242E
B21: GMBC690 (scFv)
scFv: B2 scFv with L11V, K13Q, G16R, N169I, K180R
B22: GMBC672 (scFv)
scFv: B2 scFv with E1Q, R113Q, G239E
B23: GMBC614 (scFv)
scFv: B2 scFv with L116M
B24: GMBC693 (scFv)
scFv: B2 scFv with E1Q, Q6E, R113K, N207D
B25: GMBC727 (scFv)
scFv: EVQLVESGGDTVKPGGSLRLSCAGSGFTFSDAWMNWVRQAPGKGLEWVGRMKSKGSGGTRDYAAPVNGRFTISRDDSKNTLYLQMNSLNTEDTGVYYCTWDWDFYYGMNVWGRGTLVTVSSGGGGSGGGGSGGGGSQSVLTQPASVSGSPGQSITISCTGTSSDVGGYNYVSWYQQHPGKAPKLMIYEGSKRPSGVSNRFSGSKSGNTASLTISGLQAEDEADYYCSSYTTRSTRVFGGGTKLTVLG
B26: GMBC667 (scFv)
scFv: B2 scFv with E1Q, V5Q, Q6E, A24G, T28P, T71R, K89N, T90I, R113Q, L116T
B27: GMBC658 (scFv)
scFv: B2 scFv with L116T
B28: GMBC651 (scFv)
scFv: B2 scFv with Q6E, K13Q, L116M
B29: GMBC617 (scFv)
scFv: EVQLVETGGGLVQPGGSLRLSCAASGFTVSSNYMSWVRQAPGKGLEWVSVIYSGGSTYYADSVKGRFTISRHNSKNTLYLQMNSLRAEDTAVYYCARGLWFGELLYWGQGTLVTVSSGGGGSGGGGSGGGGSQSALTQPASVSGSRGQSITISCTGTTGDVGGYDYVSWYQQHPGKAPKLLIYGNSNRPSGVPDRFSASKSGNTASLTISGLQAEDEADYFCSTYAPPGIIMFGGGTKLTVLG
B30: GMBC618 (scFv)
scFv: EVQLVQSGGGLVKPGGSLRLSCAASGFKFDDAWMNWVRQAPGKGLEWVGRIKSKRSGGTIDYAAPVKDRFTISRDDSKNTLYLQMNSLRTEDTALYYCTWDWDFYYGMNVWGRGTLVTVSSGGGGSGGGGSGGGGSQSVLTQPPSASGTPGQRVTISCSGSSSNIGSNTVNWYQRLPGAAPQLLIYNNDQRPSGIPDRFSGSKSGTSGSLVISGLQSEDEADYYCASWDDSLNGRVFGGGTKLTVLG
B31: GMBC603 (scFv)
scFv: QVQLVQSGGGVVRPGGSLRLSCAASGFTFDDYGMSWVRQAPGKGLEWVSGINWNGGSTGYADSVKGRFTISRDNAKNSLYLQMNSLRAEDTALYYCAKDLNYDFWSGSGMDVWGRGTLVTVSSGGGGSGGGGSGGGGSQSVLTQPASVSGSPGQSITISCTGTSSDVGGYNYVSWYQQHPGKAPKLMIYEGSKRPSGVSNRFSGSKSGNTASLTISGLQAEDEADYYCSSYTTRSTRVFGGGTKLTVLG

Molecular target: T1, flag-tagged soluble TL3 (amino acids 105-251 of SEQ ID NO:234) (Homo sapiens (Human), UniProt O75888 105-250)
T1 construct: Heterologous flag-tagged control protein, immobilized in the ELISA; also called flagged tagged TL-3; not shown: Flag tag
T1 sequence: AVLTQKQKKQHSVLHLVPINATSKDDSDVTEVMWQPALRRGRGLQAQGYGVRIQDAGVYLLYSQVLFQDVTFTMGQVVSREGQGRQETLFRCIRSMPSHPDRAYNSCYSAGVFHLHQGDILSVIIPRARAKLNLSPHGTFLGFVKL
Assay: phage ELISA on immobilized flag-tagged soluble TL3
Protocol: The individual phage isolates in the panel of phage, each phage expressing a unique scFv that bound to flag-tagged GMAD, were tested to ensure specificity for GMAD using an ELISA assay. The scFvs were tested in an ELISA for their ability to bind a heterologous flag-tagged protein, in this case—immobilized soluble TL3 (amino acids 105-251 of SEQ ID NO:234, GenBank Accesion Number NP_{—}003799, also described in International Patent Application Publication Number WO97/33902 and WO2001/96528 which are herein incorporated by reference in their entireties).

| Binder | binding result |
| --- | --- |
| B1 | no binding |
| B2 | no binding |
| B3 | no binding |
| B4 | no binding |
| B5 | no binding |
| B6 | no binding |
| B7 | no binding |
| B8 | no binding |
| B9 | no binding |
| B10 | no binding |
| B11 | no binding |
| B12 | no binding |
| B13 | no binding |
| B14 | no binding |
| B15 | no binding |
| B16 | no binding |

| Binder | binding result |
| --- | --- |
| B17 | no binding |
| B18 | no binding |
| B19 | no binding |
| B20 | no binding |
| B21 | no binding |
| B22 | no binding |
| B23 | no binding |
| B24 | no binding |
| B25 | no binding |
| B26 | no binding |
| B27 | no binding |
| B28 | no binding |
| B29 | no binding |
| B30 | no binding |
| B31 | no binding |
